The record followed here is article PMC3335792.

For this test, the target named is E. coli β-clamp labeled with OregonGreen488 (E. coli β-clamp^OG) (E. coli), P0A988. The test can be described thus: other fluorescence titration; OregonGreen488-labeled β-clamp (50 or 100 nM in the methods, 90 nM in the legend) titrated with the partner protein; 20 mM Tris-Cl pH 7.5, 8 mM MgCl2, 1 mM DTT, 0.2 mM EDTA, 50 mM NaCl, 0.5 mM ATP, 22°C; emission at 510 nm; apparent Kd. The conditions noted are these: remark: other sources report otherwise.
E. coli β-clamp labeled with OregonGreen488 (E. coli β-clamp^OG) (E. coli), P0A988, sequence (P0A988 whole entry): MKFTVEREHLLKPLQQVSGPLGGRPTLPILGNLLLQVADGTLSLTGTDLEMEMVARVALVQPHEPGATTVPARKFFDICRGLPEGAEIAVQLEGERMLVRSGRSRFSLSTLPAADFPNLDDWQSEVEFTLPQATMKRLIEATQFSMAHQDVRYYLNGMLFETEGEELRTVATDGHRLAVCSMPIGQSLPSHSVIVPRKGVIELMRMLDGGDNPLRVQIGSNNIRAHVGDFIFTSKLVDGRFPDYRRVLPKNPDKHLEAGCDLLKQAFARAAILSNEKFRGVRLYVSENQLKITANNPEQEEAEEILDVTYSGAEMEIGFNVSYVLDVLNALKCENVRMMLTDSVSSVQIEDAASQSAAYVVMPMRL

B1: E. coli NAD+-dependent DNA ligase (E. coli LigA), P15042 1-671 (enzyme)
chain: MESIEQQLTELRTTLRHHEYLYHVMDAPEIPDAEYDRLMRELRELETKHPELITPDSPTQRVGAAPLAAFSQIRHEVPMLSLDNVFDEESFLAFNKRVQDRLKNNEKVTWCCELKLDGLAVSILYENGVLVSAATRGDGTTGEDITSNVRTIRAIPLKLHGENIPARLEVRGEVFLPQAGFEKINEDARRTGGKVFANPRNAAAGSLRQLDPRITAKRPLTFFCYGVGVLEGGELPDTHLGRLLQFKKWGLPVSDRVTLCESAEEVLAFYHKVEEDRPTLGFDIDGVVIKVNSLAQQEQLGFVARAPRWAVAFKFPAQEQMTFVRDVEFQVGRTGAITPVARLEPVHVAGVLVSNATLHNADEIERLGLRIGDKVVIRRAGDVIPQVVNVVLSERPEDTREVVFPTHCPVCGSDVERVEGEAVARCTGGLICGAQRKESLKHFVSRRAMDVDGMGDKIIDQLVEKEYVHTPADLFKLTAGKLTGLERMGPKSAQNVVNALEKAKETTFARFLYALGIREVGEATAAGLAAYFGTLEALEAASIEELQKVPDVGIVVASHVHNFFAEESNRNVISELLAEGVHWPAPIVINAEEIDSPFAGKTVVLTGSLSQMSRDDAKARLVELGAKVAGSVSKKTDLVIAGEAAGSKLAKAQELGIEVIDEAEMLRLLGS
modifications: here or on the partner: OregonGreen488 label (residue not stated)
In the case of B1, the Kd amounted to 42.5 nM.
